Results reported in patent US12679878B2, “CRF2 receptor agonists and their use in therapy” (SANOFI, priority 2020, dated 2026).
Starred links: 1 amine or outer side, 2 acyl side, 3 side chain; linkers in the order of their positions; H or OH if unused. Non-standard residues stand in square brackets, D forms with d. Groups on a side chain read outwards from the residue. No end group written: not given here. *: point of attachment. C18 diacid = O=C(O)CCCCCCCCCCCCCCCCC(=O)*; γGlu = O=C(O)[C@H](CCC(=O)[*:2])N[*:1]; AEEA = NCCOCCOCC(=O)O; Aib = CC(C)(N)C(=O)O

What follows are binders tested against human corticotropin-releasing factor 2α (CRF2 α receptor) (human), Q13324 (assay: cell-based or functional assay).
human corticotropin-releasing factor 2α (CRF2 α receptor) (human), Q13324, sequence (Q13324 20-411): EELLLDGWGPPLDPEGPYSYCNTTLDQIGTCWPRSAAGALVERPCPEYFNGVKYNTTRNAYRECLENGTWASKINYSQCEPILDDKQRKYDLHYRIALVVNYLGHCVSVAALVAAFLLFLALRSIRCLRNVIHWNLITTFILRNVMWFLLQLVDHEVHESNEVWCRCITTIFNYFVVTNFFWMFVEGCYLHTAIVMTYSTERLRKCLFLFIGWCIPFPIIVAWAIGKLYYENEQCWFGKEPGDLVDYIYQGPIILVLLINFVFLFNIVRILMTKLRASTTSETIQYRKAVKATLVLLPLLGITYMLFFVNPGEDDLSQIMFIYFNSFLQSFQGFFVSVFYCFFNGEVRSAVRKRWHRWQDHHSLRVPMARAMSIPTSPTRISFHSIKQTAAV

Row | EC50 [nM], 0% HSA [nM] | EC50 [nM], 0.1% HSA [nM] | Binder
1 | 50.9 |  | IVLSLDVPIKLK([AEEA-AEEA-γGlu-C18 diacid])QKLLKQERQKKQREKAKTNVQILAQV-NH2 (N-terminus assumed; SMILES CC[C@H](C)[C@H](N)C(=O)N[C@H](C(=O)N[C@@H](CC(C)C)C(=O)N[C@@H](CO)C(=O)N[C@@H](CC(C)C)C(=O)N[C@@H](CC(=O)O)C(=O)N[C@H](C(=O)N1CCC[C@H]1C(=O)N[C@H](C(=O)N[C@@H](CCCCN)C(=O)N[C@@H](CC(C)C)C(=O)N[C@@H](CCCCNC(=O)COCCOCCNC(=O)COCCOCCNC(=O)CC[C@H](NC(=O)CCCCCCCCCCCCCCCCC(=O)O)C(=O)O)C(=O)N[C@@H](CCC(N)=O)C(=O)N[C@@H](CCCCN)C(=O)N[C@@H](CC(C)C)C(=O)N[C@@H](CC(C)C)C(=O)N[C@@H](CCCCN)C(=O)N[C@@H](CCC(N)=O)C(=O)N[C@@H](CCC(=O)O)C(=O)N[C@@H](CCCNC(=N)N)C(=O)N[C@@H](CCC(N)=O)C(=O)N[C@@H](CCCCN)C(=O)N[C@@H](CCCCN)C(=O)N[C@@H](CCC(N)=O)C(=O)N[C@@H](CCCNC(=N)N)C(=O)N[C@@H](CCC(=O)O)C(=O)N[C@@H](CCCCN)C(=O)N[C@@H](C)C(=O)N[C@@H](CCCCN)C(=O)N[C@H](C(=O)N[C@@H](CC(N)=O)C(=O)N[C@H](C(=O)N[C@@H](CCC(N)=O)C(=O)N[C@H](C(=O)N[C@@H](CC(C)C)C(=O)N[C@@H](C)C(=O)N[C@@H](CCC(N)=O)C(=O)N[C@H](C(N)=O)C(C)C)[C@@H](C)CC)C(C)C)[C@@H](C)O)[C@@H](C)CC)C(C)C)C(C)C) [SEQ ID NO: 93]
2 | 1.73 | 49.1 | IVLSLDVPIKLK([AEEA-AEEA-γGlu-C18 diacid])KILLKQERQKKEREQAETNKQILAQV-NH2 (N-terminus assumed; SMILES CC[C@H](C)[C@H](N)C(=O)N[C@H](C(=O)N[C@@H](CC(C)C)C(=O)N[C@@H](CO)C(=O)N[C@@H](CC(C)C)C(=O)N[C@@H](CC(=O)O)C(=O)N[C@H](C(=O)N1CCC[C@H]1C(=O)N[C@H](C(=O)N[C@@H](CCCCN)C(=O)N[C@@H](CC(C)C)C(=O)N[C@@H](CCCCNC(=O)COCCOCCNC(=O)COCCOCCNC(=O)CC[C@H](NC(=O)CCCCCCCCCCCCCCCCC(=O)O)C(=O)O)C(=O)N[C@@H](CCCCN)C(=O)N[C@H](C(=O)N[C@@H](CC(C)C)C(=O)N[C@@H](CC(C)C)C(=O)N[C@@H](CCCCN)C(=O)N[C@@H](CCC(N)=O)C(=O)N[C@@H](CCC(=O)O)C(=O)N[C@@H](CCCNC(=N)N)C(=O)N[C@@H](CCC(N)=O)C(=O)N[C@@H](CCCCN)C(=O)N[C@@H](CCCCN)C(=O)N[C@@H](CCC(=O)O)C(=O)N[C@@H](CCCNC(=N)N)C(=O)N[C@@H](CCC(=O)O)C(=O)N[C@@H](CCC(N)=O)C(=O)N[C@@H](C)C(=O)N[C@@H](CCC(=O)O)C(=O)N[C@H](C(=O)N[C@@H](CC(N)=O)C(=O)N[C@@H](CCCCN)C(=O)N[C@@H](CCC(N)=O)C(=O)N[C@H](C(=O)N[C@@H](CC(C)C)C(=O)N[C@@H](C)C(=O)N[C@@H](CCC(N)=O)C(=O)N[C@H](C(N)=O)C(C)C)[C@@H](C)CC)[C@@H](C)O)[C@@H](C)CC)[C@@H](C)CC)C(C)C)C(C)C) [SEQ ID NO: 94]
3 | 25 |  | IVLSLDVPIKLK([AEEA-AEEA-γGlu-C18 diacid])QKLLKQERQKKEREQAETNKQILAQV-NH2 (N-terminus assumed; SMILES CC[C@H](C)[C@H](N)C(=O)N[C@H](C(=O)N[C@@H](CC(C)C)C(=O)N[C@@H](CO)C(=O)N[C@@H](CC(C)C)C(=O)N[C@@H](CC(=O)O)C(=O)N[C@H](C(=O)N1CCC[C@H]1C(=O)N[C@H](C(=O)N[C@@H](CCCCN)C(=O)N[C@@H](CC(C)C)C(=O)N[C@@H](CCCCNC(=O)COCCOCCNC(=O)COCCOCCNC(=O)CC[C@H](NC(=O)CCCCCCCCCCCCCCCCC(=O)O)C(=O)O)C(=O)N[C@@H](CCC(N)=O)C(=O)N[C@@H](CCCCN)C(=O)N[C@@H](CC(C)C)C(=O)N[C@@H](CC(C)C)C(=O)N[C@@H](CCCCN)C(=O)N[C@@H](CCC(N)=O)C(=O)N[C@@H](CCC(=O)O)C(=O)N[C@@H](CCCNC(=N)N)C(=O)N[C@@H](CCC(N)=O)C(=O)N[C@@H](CCCCN)C(=O)N[C@@H](CCCCN)C(=O)N[C@@H](CCC(=O)O)C(=O)N[C@@H](CCCNC(=N)N)C(=O)N[C@@H](CCC(=O)O)C(=O)N[C@@H](CCC(N)=O)C(=O)N[C@@H](C)C(=O)N[C@@H](CCC(=O)O)C(=O)N[C@H](C(=O)N[C@@H](CC(N)=O)C(=O)N[C@@H](CCCCN)C(=O)N[C@@H](CCC(N)=O)C(=O)N[C@H](C(=O)N[C@@H](CC(C)C)C(=O)N[C@@H](C)C(=O)N[C@@H](CCC(N)=O)C(=O)N[C@H](C(N)=O)C(C)C)[C@@H](C)CC)[C@@H](C)O)[C@@H](C)CC)C(C)C)C(C)C) [SEQ ID NO: 95]

Further lines, the binder ahead of its results:

Row | Binder | EC50 [nM], 0% HSA [nM] | EC50 [nM], 0.1% HSA [nM]
4 | IVLSLDVPIKLK([AEEA-AEEA-γGlu-C18 diacid])QILLKQERQKKQREKAKTNVQILAQV-NH2 (N-terminus assumed; SMILES CC[C@H](C)[C@H](N)C(=O)N[C@H](C(=O)N[C@@H](CC(C)C)C(=O)N[C@@H](CO)C(=O)N[C@@H](CC(C)C)C(=O)N[C@@H](CC(=O)O)C(=O)N[C@H](C(=O)N1CCC[C@H]1C(=O)N[C@H](C(=O)N[C@@H](CCCCN)C(=O)N[C@@H](CC(C)C)C(=O)N[C@@H](CCCCNC(=O)COCCOCCNC(=O)COCCOCCNC(=O)CC[C@H](NC(=O)CCCCCCCCCCCCCCCCC(=O)O)C(=O)O)C(=O)N[C@@H](CCC(N)=O)C(=O)N[C@H](C(=O)N[C@@H](CC(C)C)C(=O)N[C@@H](CC(C)C)C(=O)N[C@@H](CCCCN)C(=O)N[C@@H](CCC(N)=O)C(=O)N[C@@H](CCC(=O)O)C(=O)N[C@@H](CCCNC(=N)N)C(=O)N[C@@H](CCC(N)=O)C(=O)N[C@@H](CCCCN)C(=O)N[C@@H](CCCCN)C(=O)N[C@@H](CCC(N)=O)C(=O)N[C@@H](CCCNC(=N)N)C(=O)N[C@@H](CCC(=O)O)C(=O)N[C@@H](CCCCN)C(=O)N[C@@H](C)C(=O)N[C@@H](CCCCN)C(=O)N[C@H](C(=O)N[C@@H](CC(N)=O)C(=O)N[C@H](C(=O)N[C@@H](CCC(N)=O)C(=O)N[C@H](C(=O)N[C@@H](CC(C)C)C(=O)N[C@@H](C)C(=O)N[C@@H](CCC(N)=O)C(=O)N[C@H](C(N)=O)C(C)C)[C@@H](C)CC)C(C)C)[C@@H](C)O)[C@@H](C)CC)[C@@H](C)CC)C(C)C)C(C)C) [SEQ ID NO: 90] | 3.91 | 92.6
5 | IVLSLDVPIKLK([AEEA-AEEA-γGlu-C18 diacid])QKLLKQERQKKQREKAKTN[Aib]QILAQV-NH2 (N-terminus assumed; SMILES CC[C@H](C)[C@H](N)C(=O)N[C@H](C(=O)N[C@@H](CC(C)C)C(=O)N[C@@H](CO)C(=O)N[C@@H](CC(C)C)C(=O)N[C@@H](CC(=O)O)C(=O)N[C@H](C(=O)N1CCC[C@H]1C(=O)N[C@H](C(=O)N[C@@H](CCCCN)C(=O)N[C@@H](CC(C)C)C(=O)N[C@@H](CCCCNC(=O)COCCOCCNC(=O)COCCOCCNC(=O)CC[C@H](NC(=O)CCCCCCCCCCCCCCCCC(=O)O)C(=O)O)C(=O)N[C@@H](CCC(N)=O)C(=O)N[C@@H](CCCCN)C(=O)N[C@@H](CC(C)C)C(=O)N[C@@H](CC(C)C)C(=O)N[C@@H](CCCCN)C(=O)N[C@@H](CCC(N)=O)C(=O)N[C@@H](CCC(=O)O)C(=O)N[C@@H](CCCNC(=N)N)C(=O)N[C@@H](CCC(N)=O)C(=O)N[C@@H](CCCCN)C(=O)N[C@@H](CCCCN)C(=O)N[C@@H](CCC(N)=O)C(=O)N[C@@H](CCCNC(=N)N)C(=O)N[C@@H](CCC(=O)O)C(=O)N[C@@H](CCCCN)C(=O)N[C@@H](C)C(=O)N[C@@H](CCCCN)C(=O)N[C@H](C(=O)N[C@@H](CC(N)=O)C(=O)NC(C)(C)C(=O)N[C@@H](CCC(N)=O)C(=O)N[C@H](C(=O)N[C@@H](CC(C)C)C(=O)N[C@@H](C)C(=O)N[C@@H](CCC(N)=O)C(=O)N[C@H](C(N)=O)C(C)C)[C@@H](C)CC)[C@@H](C)O)[C@@H](C)CC)C(C)C)C(C)C) [SEQ ID NO: 91] | 14.3 | 
6 | IVLSLDVPIKLK([AEEA-AEEA-γGlu-C18 diacid])QKLLEQERQKKQREQAETN[Aib]QILAQV-NH2 (N-terminus assumed; SMILES CC[C@H](C)[C@H](N)C(=O)N[C@H](C(=O)N[C@@H](CC(C)C)C(=O)N[C@@H](CO)C(=O)N[C@@H](CC(C)C)C(=O)N[C@@H](CC(=O)O)C(=O)N[C@H](C(=O)N1CCC[C@H]1C(=O)N[C@H](C(=O)N[C@@H](CCCCN)C(=O)N[C@@H](CC(C)C)C(=O)N[C@@H](CCCCNC(=O)COCCOCCNC(=O)COCCOCCNC(=O)CC[C@H](NC(=O)CCCCCCCCCCCCCCCCC(=O)O)C(=O)O)C(=O)N[C@@H](CCC(N)=O)C(=O)N[C@@H](CCCCN)C(=O)N[C@@H](CC(C)C)C(=O)N[C@@H](CC(C)C)C(=O)N[C@@H](CCC(=O)O)C(=O)N[C@@H](CCC(N)=O)C(=O)N[C@@H](CCC(=O)O)C(=O)N[C@@H](CCCNC(=N)N)C(=O)N[C@@H](CCC(N)=O)C(=O)N[C@@H](CCCCN)C(=O)N[C@@H](CCCCN)C(=O)N[C@@H](CCC(N)=O)C(=O)N[C@@H](CCCNC(=N)N)C(=O)N[C@@H](CCC(=O)O)C(=O)N[C@@H](CCC(N)=O)C(=O)N[C@@H](C)C(=O)N[C@@H](CCC(=O)O)C(=O)N[C@H](C(=O)N[C@@H](CC(N)=O)C(=O)NC(C)(C)C(=O)N[C@@H](CCC(N)=O)C(=O)N[C@H](C(=O)N[C@@H](CC(C)C)C(=O)N[C@@H](C)C(=O)N[C@@H](CCC(N)=O)C(=O)N[C@H](C(N)=O)C(C)C)[C@@H](C)CC)[C@@H](C)O)[C@@H](C)CC)C(C)C)C(C)C) [SEQ ID NO: 92] | 9.17 | 
